According to patent publication US11872307B2, “Liquisoft capsules” (PATHEON SOFTGELS INC., priority 2015, dated 2024):

Experiment: Appearance / precipitation of matrix fill
Format: physicochemical
Conditions: dextromethorphan hydrobromide 30 mg, menthol 5 mg
Experimental: Formulas 14, 15, and 16 were the initial matrix prototypes for dextromethorphan hydrobromide (30 mg) and menthol (5 mg). Three different taste-masking agents were tested: mannitol, thaumatin (Talin®) and glycyrrhizic acid salts (MagnaSweet®).
Thaumatin and glycyrrhizic acid salts were employed with the lower active pharmaceutical ingredient dose, individually and as a combination. […] Thus, the glycyrrhizic acid salts were not further assessed for chemical stability. Thus, Formula 19 was formulated using thaumatin and used for excipient compatibility studies.

Thaumatin
appearance of matrix fill: hazy appearance
